These are literature values, as cited in PMC3196573.

What is called Kd is the concentration at which binding is half-saturated.

One data set deals with ALK3 (Homo sapiens) (UniProt P36894).
In the next data set the target is ALK6 (Homo sapiens) (UniProt O00238).
Sequence of UniProt O00238 (O00238 14-126): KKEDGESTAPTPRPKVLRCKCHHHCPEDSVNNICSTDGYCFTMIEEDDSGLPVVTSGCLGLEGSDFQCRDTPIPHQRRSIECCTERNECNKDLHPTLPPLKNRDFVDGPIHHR

Sequence of UniProt P36894 (P36894 24-152): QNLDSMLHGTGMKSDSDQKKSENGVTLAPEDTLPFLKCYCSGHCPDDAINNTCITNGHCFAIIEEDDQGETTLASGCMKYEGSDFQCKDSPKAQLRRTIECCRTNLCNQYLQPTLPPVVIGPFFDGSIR

For BMP2 (from UniProt P12643), the results for the Kd with ALK3 (Homo sapiens) and with ALK6 (Homo sapiens) were 0.9 nM and 3.6 nM, respectively.
